The supplement of paper PMC7877785
± gives the uncertainty stated by the source.

Assay: self-splicing fitness, log relative to wild type (ln ratio); higher = more splicing; Tetrahymena group I intron in knt gene, E. coli kanamycin selection, DiMSum; sequences stand for … in CUCUCU…GGAGGGAAAAGUUAUCAGGCAUGCACCUGGUAGCUAGUCUUUAAACCAAUAGAUUGCAUCGGUUUAAAAGGCAAGACCGUCAAAUUGCGGGAAAGGGGUCAACAGCCGUUCAGUACCAAGUCUCAGGGGAAACUUUGAGAUGGCCUUGCAAAGGGUAUGGUAAUAAGCUGACGGACAUGGUCCUAACCACGCAGCCAAGUCCUAAGUCAACAGAUCUUCUGUUGAUAUGGAUGCAGUUCACAGACUAAAUGUCGGUCGGGGAAGAUGUAUUCUUCUCAUAAGAUAUAGUCGGACCUCUCCUUAAUGGGAGCUAGCGGAUGAAGUGAUGCAACACUGGAGCCGCUGGGAACUAAUUUGUAUGCGAAAGUAUAUUGAUUAGUUUUGGAGUACUCGUGGUCG
In short: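 Six replicate transformations of E. coli BL21(DE3) with a pET-22b(+) library were grown overnight at 37°C or 30°C. The library randomised all eight P1ex-region intron nucleotides, the intron lying in the knt kanamycin-resistance gene, and plates were LB agar with or without 25 μg/mL kanamycin plus 100 μg/mL carbenicillin, 50 μM IPTG and 0.2% rhamnose. Pooled colonies were amplicon-sequenced on an Illumina HiSeq 2500, and fitness is the DiMSum error-weighted combination of wild-type-normalised replicate fold changes, kanamycin versus none.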

Sequence | self-splicing fitness (ln) (30 °C) | self-splicing fitness (ln) (37 °C)
AGCAAGCAAUAUUACGCCCU | -2.12 ± 0.26 | -0.679 ± 0.36
AGCAAGCAAUAUUACGCCUG | -3.23 ± 0.27 | -2.54 ± 0.42
AGCAAGCAAUAUUACGCGAG | -3.61 ± 0.16 | -2.87 ± 0.19
AGCAAGCAAUAUUACGCGCC | -3.19 ± 0.34 | -2.46 ± 0.32
AGCAAGCAAUAUUACGCGGG | -3.87 ± 0.21 | -3.71 ± 0.26
AGCAAGCAAUAUUACGCUAG | -4.08 ± 0.25 | -2.1 ± 0.22
AGCAAGCAAUAUUACGCUGA | -2.22 ± 0.14 | -2.07 ± 0.17
AGCAAGCAAUAUUACGCUGU | -2.69 ± 0.12 | -0.265 ± 0.12
AGCAAGCAAUAUUACGCUUU | -2.23 ± 0.17 | -1.55 ± 0.12
AGCAAGCAAUAUUACGGAAG | -3.35 ± 0.25 | -2.32 ± 0.26
AGCAAGCAAUAUUACGGAGU | -2.98 ± 0.13 | -1.6 ± 0.12
AGCAAGCAAUAUUACGGCAU | -0.0513 ± 0.084 | -0.204 ± 0.092
AGCAAGCAAUAUUACGGGGG | -3.78 ± 0.15 | -2.45 ± 0.19
AGCAAGCAAUAUUACGGUCG | -0.327 ± 0.1 | 0.74 ± 0.13
AGCAAGCAAUAUUACGGUGA | -1.88 ± 0.11 | -0.835 ± 0.093
AGCAAGCAAUAUUACGGUUC | -3.75 ± 0.17 | -3.42 ± 0.25
AGCAAGCAAUAUUACGGUUU | -1.28 ± 0.051 | -0.398 ± 0.066
AGCAAGCAAUAUUACGUAAG | -2.47 ± 0.097 | -0.897 ± 0.12
AGCAAGCAAUAUUACGUCAC | -2.89 ± 0.16 | -1.88 ± 0.18
AGCAAGCAAUAUUACGUCGG | -2.93 ± 0.19 | -1.59 ± 0.19
AGCAAGCAAUAUUACGUCGU | -1.72 ± 0.12 | -0.897 ± 0.16
AGCAAGCAAUAUUACGUUGA | -2.95 ± 0.12 | -1.37 ± 0.1
AGCCAGCAAUAUUACGAAAA |  | -1.63 ± 0.24
AGCCAGCAAUAUUACGAACC | -0.758 ± 0.12 | -0.0185 ± 0.11
AGCCAGCAAUAUUACGACAC | -2.83 ± 0.28 | -1.55 ± 0.27

Sequence | self-splicing fitness (ln) (30 °C) | self-splicing fitness (ln) (37 °C)
AGCCAGCAAUAUUACGACCU | 0.00818 ± 0.069 | 0.00767 ± 0.083
AGCCAGCAAUAUUACGACUG | -2.72 ± 0.091 | -1.14 ± 0.095
AGCCAGCAAUAUUACGAUAG | -4.04 ± 0.28 | -2.35 ± 0.24
AGCCAGCAAUAUUACGCCGU | -2.54 ± 0.12 | -1.76 ± 0.13
AGCCAGCAAUAUUACGCGGA | -3.48 ± 0.19 | -2.23 ± 0.12
AGCCAGCAAUAUUACGCGGC | -3.54 ± 0.25 | -3.42 ± 0.31
AGCCAGCAAUAUUACGCGUU | -2.17 ± 0.12 | -0.95 ± 0.12
AGCCAGCAAUAUUACGCUCC | -2.35 ± 0.16 | -2.51 ± 0.21
AGCCAGCAAUAUUACGCUGG | -4.12 ± 0.26 | -2.32 ± 0.26
AGCCAGCAAUAUUACGGACG | 0.121 ± 0.072 | 0.405 ± 0.094
AGCCAGCAAUAUUACGGAUA | -1.63 ± 0.11 | -1.51 ± 0.12
AGCCAGCAAUAUUACGGCAU | -1.31 ± 0.099 | -1.15 ± 0.12
AGCCAGCAAUAUUACGGGCU | -4.03 ± 0.25 | -2.5 ± 0.21
AGCCAGCAAUAUUACGGUGU | -1.99 ± 0.084 | -2.51 ± 0.12
AGCCAGCAAUAUUACGUAGC | -3.01 ± 0.14 | -2.05 ± 0.15
AGCCAGCAAUAUUACGUCAC |  | -2.15 ± 0.44
AGCCAGCAAUAUUACGUGCU | -3.62 ± 0.18 | -2.06 ± 0.21
AGCCAGCAAUAUUACGUUUA | -2.7 ± 0.35 | -2.48 ± 0.38
AGCGAGCAAUAUUACGAAGG | -4.58 ± 0.26 | -2.09 ± 0.15
AGCGAGCAAUAUUACGAGUA | -1.68 ± 0.26 | -1.18 ± 0.29
AGCGAGCAAUAUUACGCAGA | -2.67 ± 0.24 | -2.88 ± 0.24
AGCGAGCAAUAUUACGCGAC | -2.33 ± 0.27 | 
AGCGAGCAAUAUUACGCGAU | -1.78 ± 0.25 | -2.2 ± 0.36
AGCGAGCAAUAUUACGCGGU |  | -2.53 ± 0.32
